# Experiment: soluble on expression in E. coli; label from the status in PepcDB or PDB records
row,Sequence,soluble on expression in E. coli
1,GLEIHVQIDTKSKLFCNCSTNYLDAEPNTNVCPVCLGLPGAKPLPPNKKAVEVAIMVAKMLGCKIVVDEDIYFQRKHYDYPDLPSGYQRTSTPIGVDGEFMGIGIHEVHLEEDPGQYNPSFGIVDYNRSGTPLIEIVTKPDIKSPEEAREFLKQLMTLFRYLGCLRGEGTMRADVNISIEYMGVQGNRVEVKNVNSIKGVYKVLKYELIRQKNIIKR,not soluble
2,MDESTCPIIEAIREVGKENDLLVIRLLSDNDLGFNQILKLAGKMSPKTLSVTLKRLTEKKIIYRDVVSTQPFRVKYRLTEKGQELRNVLNDLGQWGERWILNNESQSAVNTENYRLKS,not soluble
3,MLVKSMNFDPLKEAEKIKDEIISWRRDFHMHPELGFEEERTSKIVEEHLREWGYKIKRAGTGIIADIGDGGKTIALRADMDALPIQEENDVPYKSRVPGKMHACGHDAHTAMLLGAAKIIAEHSSELENKVRLIFQPAEEGGNGALKMIEAGALEGVDAIFGIHVWAELPSGIVGIREGPFLAGVGKFIAKIIGKGGHGAAPHFSIDPIPAAADAVLALQRIVAREVDPLESAVVTVGKIQGGTAFNVIPQYVELEGTFRFFTQELGKFLERRIREIIENTAKAHNCKAEVNTEILGPPTINDEKMVKFVAETAKALGLKVGEVRKTLGGEDFAYYLEKVPGAFIALGIRNEEKGIIYPHHHPKFDVDEDVLYLGTALEVALAFNFKG,soluble
4,MGSDKIHHHHHHMKVNILMSTYNGQEFIAQQIQSIQKQTFENWNLLIRDDGSSDETPKIIADFAKSDARIRFINADKRENFGVIKNFYTLLKYEKADYYFFSDQDDVWQPQKLELTLASVEKENNQIPLMVYTDLTVVDRDLQVLHDSMIKTQSHHANTSLLEELTENTVTGGTMMVNHCLAKQWKQCYDDLIMHDWYLALLAASLGKLIYLDETTELYRQHESNVLGARTWSKRLKNWLRPHRLVKKYWWLVTSSQQQASHLLELDLSAANKAIIQAYVTLLDQSFLNRIKWLKQYGFAKNRAFHTFVFKTLIITKFGYRRK,not soluble
5,MAHHHHHHMALRRLVKMSTTAEECAAVSELFRQYRHPNLVPLTNVLVTDEFVMGSADVIMEYKFITGAKSLNEAFINEGKATEGLLWSFACQMVSLMRAFHETSTPLRGLHWTKILFVPVSSRFYFSGVGFMDVMEPKGSAHQSAALMKHDIQSLGLLLLQLSTGNSNAKPEDFTAQPAKGYSGIFWLLVKACIDGTADVVTLCRALGERMSMEVAHQEGHADRLISQCGKEAHNGRIMRLMIKLNFVLESLHDFPEHSAEANNRYALRLFSQYVFNQVDERHRTRLDWGHVFHSLNKLDCGSEELVQLIGNDESNTILVISYRDLRDTLERAFEQLQPPPNEGDVQPFTVTVGTTSATL,not soluble
6,MAAEEGAVIACHTKQEFDTHMANGKDTGKLVIIDFTASWCGPCRVIAPVFAEYAKKFPGAIFLKVDVDELKDVAEAYNVEAMPTFLFIKDGEKVDSVVGGRKDDIHTKIVALMGSAST,soluble
7,MGSSHHHHHHSSGLVPRGSHMGSSHHHHHHSSGLVPRGSHMSQLAHNLTLSIFDPVANYRAARIICTIGPSTQSVEALKGLIQSGMSVARMNFSHGSHEYHQTTINNVRQAAAELGVNIAIALDTKGPEIRTGQFVGGDAVMERGATCYVTTDPAFADKGTKDKFYIDYQNLSKVVRPGNYIYIDDGILILQVQSHEDEQTLECTVTNSHTISDRRGVNLPGCDVDLPAVSAKDRVDLQFGVEQGVDMIFASFIRSAEQVGDVRKALGPKGRDIMIICKIENHQGVQNIDSIIEESDGIMVARGDLGVEIPAEKVVVAQKILISKCNVAGKPVICATQMLESMTYNPRPTRAEVSDVANAVFNGADCVMLSGETAKGKYPNEVVQYMARICLEAQSALNEYVFFNSIKKLQHIPMSADEAVCSSAVNSVYETKAKAMVVLSNTGRSARLVAKYRPNCPIVCVTTRLQTCRQLNITQGVESVFFDADKLGHDWGKEHRVAAGVEFAKSKGYVQTGDYCVVIHADHKVKGYANQTRILLVE,soluble
8,MSLTVSKINEKATPVKKWTVYLVQHTHTDIGYTKPQTEILSEHLRYIDYAIEYCEQTKDYTNDAKFRWTCESAWAVDEYLKNRPEEQVNKLKKYIAEGQIEVASMYFNMSEIVDENSFKTFLQPVKEFRKHGIPSALAMQNDVNGIAWCLADYLPDLGIKYLWMGEHHYKSQVPFNMPTVFQWESPSGKPILTYRADHYNTGNFWGIEQGDIQKTEPKLLHYLSELERKHYPFDAVGVQYSGYFTDNSPPSIIECKLIREWNEKYAYPKLRSATASEFMDYVTERYGDKIPAYRAAYPDWWTDGFGSAARETAASRKTHSDMTAVEGLLSMAVLKDKCLPQATHQQIEHIHESLLFYDEHTFGASESVSDPLCENSQVQWGEKSAYAWEAVKRTQMLYETSVGLLQGDLRRGKNPTLTIFNTLNWKRSEMLTVYIDFEVIPRNQFFEITDFQGHSLKVQPIRYRREGCYYAIFAEDIPPMGYKTFEIVFKQPSTDTGTITINNASIENHFYKLQLNPDKGTIQSLYDKELNCELVDSSSPWELGAFIYEKLGNRDQLAQYRLDDYNRTGLSECRIIDSSNGPIYQRILLQGKSPGTDEAFGVNLEIKLYHDTKRIELEYAIKRLPETDPSGIYVAFPFQLPEGKLAFDVQGGTVISGKNQLEGTSTDWNTVQNFVSVQNNQAQIIIGSSLIPLYQLGDINLGKFQYQKQYERPHVYSWVMNNYWNTNFKASQEGEFRWSYHLTSSVDPSNNLATKFGWSSRIPLYARVMPTGTENHKPTEYSAFHFEKDNFLMTSCTPSKEEGYILLNIREIDGKRTNLRILNEDGQTIPFTIVNAIEEKLENETSEHIFEGYQNKFIKIKREGHHHHHH,soluble
9,FSDAFETAFFSVSNIGLHARAYKDKLFVHTASLRSGNPYKQVDLLVLDAKGETVLQGATDDNGNALLNYTLNAGHVLVSRNGRDISILPFNQPALDLSEFAVAGRENPWFDVFAWSGRDLYRPGEMLRISALLRDRDGKPVKPQPVFLRLKQPDGKTFRETRLQPAEQGYLEFTQKIPSDAPTGRWRVEFRTDPASKEAVQGLAVRVEEFLPERMKLELSSAQPVLRAKAPFTLTADAAYLYGAPAAGNRFTANLAVAVEQHPLDNMPGWFFGDATL,not soluble
10,MSLNIPLSGIIPPLVTPLLDDDVLDVEGLQRLIEHLIAGGVHALFVLGTTGESQSLSYKLRMEMIKNTCRIAKGRLPVLVCISDTSIVESVNLACLAADHGADAVVSAPPYYFATGQPELIEFYEHLLPQLPLPLFLYNMPTHTKVNFAPATIQRIAENPGVIGFKDSSANTVYFQSVMYAMKDNPDFSMLVGPEEIMAESVLLGAHGGVNGGANMFPELYVSLYNAAKNADMEEVRRLQEKVMQISATIYTVGQHGSSYLKGLKCALSLLGICSDYVAAPFHKFEQRERGKIWKALQNLGVDEGHHHHHH,soluble
11,MSLDKKAVFADVAEKDASFINENYYISPSLDTLSSYSLLQLRKVPHLVVGHKSYGKIEFLEPVDLAGIPLTSLGGVIITFEPKTCIIYANLPNRPKRGEGINVRARITCFNCYPVDKSTRKPIKDPNHQLVKRHIERLKKNPNSKFESYDADSGTYVFIVNHAAEQTEGHHHHHH,soluble
12,MANAFGLSLGTALRRDPAEGPVRPQRPLGRLIWLHAPTRDSARPMAELGRRIILDEGFPVLLTTHVPVSSGGILIVQPPPPDTPAAVAAFLDHWRPDAAFMAEGELRPSLINSAFDRNVPLALVDGAAPRILPGRESWWPGQMRNLLAKFRHIFTLDEAAARAFRKAGSSSHVTQVAGRLEEGSLALPCTEAERAALARLLAPRQVWLAAGLPIEEEAAAIAAHHAALKLAHRMLLIVVPQEPDRAAAFAARCEAEGWKVARRAADEEPDADTEVFVADGMAELGLWYRLAPVTWLGGSLSVGCVLDPLEAASLGSALIHGPHFGPHGATLARLSAARASLPVASARGLAEALADLLAPDRVARLAHAGWAVASEGTEVTDRMVALAGRLVEREALEHHHHHH,not soluble
13,MHGEETPRTDLTLFSEKMQELKSRIASVIVGQERTVDLVLTAILANGHVLIEGVPGVAKTLLARLTARLIDADFSRVQFTPDLMPSDVLGTTVFNMKTNEFDFHRGPVFANIILVDEINRAPAKTQSALFEVMEERQASIDGTTYRMGELYTILATQNPVEQEGTYKLPEAQLDRFLMKITMDYPSLDEEINILERHHTNAALVKLEEIQPVITREELLSLRRLTEKVFVDRTLLQYIALIAQQTRTSKAVYLGASPRASVAMLQASKAYALLQGRDFVTPEDIKFVAPYVLQHRLILTAEAEMEGYSPVKVTQRLIDKVEVPKLEHHHHHH,soluble
14,MSNSDDEIQEIEAKRQKMSQEDSEVEIEILDEPEQGKLKNSSMSDEQKLHEFAIITATDEAFAQSILQDVDWDLKKALDVFYGSEAFAEARSAAVMGASSSMASSGAAVMTAEDLKGFEVSVMSWNIDGLDGRSLLTRMKAVAHIVKNVNPDILFLQEVVDRDLAPIDKLQSLYKIYYSNKGCQYYTAILVSKMFDVEKHDVIHFQNSGMYRTLQILEGSIGGLKVFLLNTHLESTREHRPQRCAQFGFCMDKVREIIAQNPGALVFFGGDLNLRDEEVSRVPDGVKDAWEAAGSDNKTKFTWDTFKNDNKQGFHGAKMRFDRLYWSGPLDKVKFTLEGRQRIRSCLCFPSDHWAINATFFA,not soluble
15,MGLKAINTSLSKNDLAHLGAGEVGYIRKMRSEEVSRCFPEAPEMGPGIDLWALFGADGTPILLTDNRSSTFFKAAEDDLRTVSLH,not soluble
16,HMAMASKEMFEDTVEERVINEEYKIWKKNTPFLYDLVMTHALQWPSLTVQWLPEVTKPEGKDYALHWLVLGTHTSDEQNHLVVARVHIPNDDAQFDASHCDSDKGEFGGFGSVTGKIECEIKINHEGEVNRARYMPQNPHIIATKTPSSDVLVFDYTKHPAKPDPSGECNPDLRLRGHQKEGYGLSWNSNLSGHLLSASDDHTVCLWDINAGPKEGKIVDAKAIFTGHSAVVEDVAWHLLHESLFGSVADDQKLMIWDTRSNTTSKPSHLVDAHTAEVNCLSFNPYSEFILATGSADKTVALWDLRNLKLKLHTFESHKDEIFQVHWSPHNETILASSGTDRRLNVWDLSKIGEEQSAEDAEDGPPELLFIHGGHTAKISDFSWNPNEPWVICSVSEDNIMQIWQMAENIYNDE,soluble
17,MTSDATHEEAVSLLQELGLKEYEAKCFVGLSRMSSGTAKGLSEVTDVPRTRVYDAVRILEAKGLVEVQHSSPQQFRAVPLSEATETLRDQYEERIERLQSALREMGRIEADNDEAELQEVWSLSGSDAIENRAAAISADATDEVVLVIGSEAVLTEPLIKQLNSLNPNADLIVGTGSASIRDRVEQEIPRATAFLSELDWLHSEMIPEEDAAVGRLLLVDRSTMLVSSINPQTGDEQAIFATGLRNGLIVIARRLLSQGVVEMTPLEQD,not soluble
18,GSHMASMTGGQQMGRGSDSSNAITIENNTLWTGAKPSANCVIKEGEDSPDCKLTLVLVKNGGLINGYITLMGASEYTNTLFKNNQVTIDVNLAFDNTGQIITYLSSLKSNLNFKDNQNMATGTITSAKGFMPSTTAYPFITYATETLNEDYIYGECYYKSTNGTLFPLKVTVTLNRRMLASGMAYAMNFSWSLNAEEAPETTEVTLITSPFFFSYIREDD,soluble
19,MDIRELVHLGRYAVWNAFEGKEIKVPEALKEKYSRNMGVFTTLKTYPEHNLRGCIGVPLPVYPLWYATVYSSLQAAFQDPRFYPLKKEEFDKVLWEITLLTPPEELKVPKEELPEQIEIGKHGLIIEKGEQKGLLLPQVPVEYGWSPVEFLEYTCLKAGLPKDCWKDKETKVYVFSGEVYQEKEPFGEVERVNLKLEHHHHHH,soluble

# Source: the DeepSol protein solubility set
